Molecular target: T1, human recombinant PILRa-Fc protein (human, UniProt Q9UKJ1 20-196, limits assumed)
T1 construct: Recombinant protein; also called human PILRa-Fc; not shown: Fc part
Assay: flow cytometry, PILRa-Fc on Ramos cells expressing FLAG-SMAGP mutant, anti-human-IgG-PE secondary

T1 sequence (Q9UKJ1 20-196 limits assumed): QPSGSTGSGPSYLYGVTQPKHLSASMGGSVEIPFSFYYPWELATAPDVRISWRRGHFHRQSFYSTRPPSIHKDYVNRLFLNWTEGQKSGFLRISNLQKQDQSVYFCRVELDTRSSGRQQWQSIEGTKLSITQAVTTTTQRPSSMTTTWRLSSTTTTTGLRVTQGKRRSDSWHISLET

binding result | Binder
no binding | N-terminus FLAG-tagged mutant SMAGP^T7A,T17A expressed on Ramos cells (other, UniProt Q0VAQ4 1-97, looked up, whole, on cells; Double glycosylation-site mutant; also called T7A and T17A double mutations on SMAGP; not shown: N-terminal FLAG tag) MTSLLTAPSPREELMTAPILQPTEALSPEDGASTALIAVVITVVFLTLLSVVILIFFYLYKNKGSYVTYEPTEGEPSAIVQMESDLAKGSEKEEYFI
no binding | N-terminus FLAG-tagged mutant SMAGP^T7A,S9A expressed on Ramos cells (other, UniProt Q0VAQ4 1-97, looked up, whole, on cells; Double glycosylation-site mutant; not shown: N-terminal FLAG tag) MTSLLTAPAPREELMTTPILQPTEALSPEDGASTALIAVVITVVFLTLLSVVILIFFYLYKNKGSYVTYEPTEGEPSAIVQMESDLAKGSEKEEYFI
no binding | N-terminus FLAG-tagged mutant SMAGP^T6A,T7A expressed on Ramos cells (other, UniProt Q0VAQ4 1-97, looked up, whole, on cells; Double glycosylation-site mutant; not shown: N-terminal FLAG tag) MTSLLAAPSPREELMTTPILQPTEALSPEDGASTALIAVVITVVFLTLLSVVILIFFYLYKNKGSYVTYEPTEGEPSAIVQMESDLAKGSEKEEYFI
